Where “and” joins values, the source holds several entries; their conditions need not be identical. Equal values may be shown once.
How the values were obtained:
Type in all cases: in vitro ADME, human
Settings in all cases: pH 7.4
[1] = substrate: CCOc1ccc2nc3ccc(=O)cc-3oc2c1; assay: pFluor50 Michaelis–Menten kinetics, CYP1A2 with Eres
Procedure: (§1) In general, the protocol for determination of the Michaelis–Menten kinetic parameters (KM and Vmax) involved addition of the appropriate master mix to phosphate buffer followed by addition of the appropriate amount of enzyme to the mix. The master mix was determined for each specific CPY450 based on empirical methods involving each reagent to obtain a linear range of enzyme activity. A total of 30 µL of this enzyme mix was then added to each well of the 384-well plate. Next, initial background readings were taken for 5 min, after which the appropriate amount of substrate was dispensed into each well using the onboard reagent dispenser of the plate reader. All plates contained one blank well without enzyme (only master mix) for each substrate concentration. […] Table 1 provides the formulation of the master mix for each CYP, the kinetic read time with substrate, the read time interval, the concentration range of the substrate used for the Michaelis–Menten kinetics, the Ex and Em wavelengths, and the concentration of substrate for inhibition/activation screening. Table S1 details the specific parameters used for the plate reader for each CYP–substrate pair.
(§2) For determining the Michaelis–Menten kinetic parameters (KM and Vmax) for each CYP–substrate pair, kinetic studies were performed in which a range of different concentrations of the substrate were used. Table 1 details the formulations for the master mix, CYPexpress^TM concentrations, and concentration ranges of each specific substrate. For each CYP–substrate pair, plate reader parameters were set up as described in Table S1. The protocol used for Michaelis–Menten kinetics was similar for all the CYPs. Briefly, the working solution was prepared for each substrate and then primed into one of the dispensers on the plate reader. The other dispenser was primed with the buffer solution. 1.5 mL of phosphate buffer solution (pH 7.4) was used to prepare the master mix with the appropriate concentration of each reagent as specified in Table 1 (NADPH, NADP+, G6P, G6PDH, and/or MgCl2). The amount of CYPexpress reagent in units/(mg/mL) was determined for each enzyme as new lots may have slightly different activities, and the activity of the reagent may change over time. The appropriate mass of each CYPexpress^TM reagent needed to obtain the required units was measured using an analytical balance and was transferred to the master mix solution. This solution was mixed, and 30 µL of the solution was added to each well using a multichannel pipette. In each case, a blank control well was also included, as described in Figure S1. The plate was then transferred to the plate reader and readings were taken at the time intervals, for the appropriate length of time, and at the appropriate wavelengths as specified in Table 1.
(§3) Calibration curves were constructed using the determined plate reader settings (Figure S3) and concentrations of the products formed to allow for the calculation of product formation rates based on the observed fluorescence. For these calculations, we presumed that the total increase in observed fluorescence over time was due only to product formation. Calibration curves were generated with 6 different concentrations of the products (fluorescein and resorufin), which spanned the relative fluorescence units (RFU) observed during the kinetic experiments. This allowed for the calculation of product concentrations from the observed RFU, enabling the calculation of the product formation rates. Unfortunately, fluorescein benzyl ester (the product formed from the metabolism of dibenzyl fluorescein) is not commercially available. Therefore, the exact rate of formation could not be determined, and the Vmax for CYP3A4 cleavage of dibenzyl fluorescein has been reported as the rate of change in relative fluorescence units (RFUs) per minute.

[2] = substrate: COc1ccc2c(-c3ccccc3C(=O)O)c3ccc(=O)cc-3oc2c1; assay: pFluor50 Michaelis–Menten kinetics, CYP2C19 with 3OMF
Procedure: as §1
For determining the Michaelis–Menten kinetic parameters (KM and Vmax) for each CYP–substrate pair, kinetic studies were performed in which a range of different concentrations of the substrate were used. […] For each CYP–substrate pair, plate reader parameters were set up as described in Table S1. […] Briefly, the working solution was prepared for each substrate and then primed into one of the dispensers on the plate reader. […] The amount of CYPexpress reagent in units/(mg/mL) was determined for each enzyme as new lots may have slightly different activities, and the activity of the reagent may change over time. The appropriate mass of each CYPexpress^TM reagent needed to obtain the required units was measured using an analytical balance and was transferred to the master mix solution. […] The plate was then transferred to the plate reader and readings were taken at the time intervals, for the appropriate length of time, and at the appropriate wavelengths as specified in Table 1.
Calibration curves were constructed using the determined plate reader settings (Figure S3) and concentrations of the products formed to allow for the calculation of product formation rates based on the observed fluorescence. For these calculations, we presumed that the total increase in observed fluorescence over time was due only to product formation. Calibration curves were generated with 6 different concentrations of the products (fluorescein and resorufin), which spanned the relative fluorescence units (RFU) observed during the kinetic experiments. […]

[3] = substrate: CCOc1ccc2nc3ccc(=O)cc-3oc2c1; assay: pFluor50 Michaelis–Menten kinetics, CYP2D6 with Eres
Procedure: as §1
as §2, with “In each case, a blank control well was also included, as described in Figure S1.” left out
as §3, with “This allowed for the calculation of product concentrations from the observed RFU, enabling the calculation of the product formation rates. Unfortunately, fluorescein benzyl ester (the product formed from the metabolism of dibenzyl fluorescein) is not commercially available.” left out

[4] = other: CYP1A2 1 mg/mL, three biological replicates
[5] = other: CYP1A2, biological repeat 1
[6] = other: CYP1A2, biological repeat 2
[7] = other: CYP1A2, biological repeat 3
[8] = other: CYP2C19 2 mg/mL, three biological replicates
[9] = other: CYP2D6 1 mg/mL, three biological replicates

B1: CYP1A2 (Homo sapiens) (protein)
chain: ALSQSVPFSATELLLASAIFCLVFWVLKGLRPRVPKGLKSPPEPWGWPLLGHVLTLGKNPHLALSRMSQRYGDVLQIRIGSTPVLVLSRLDTIRQALVRQGDDFKGRPDLYTSTLITDGQSLTFSTDSGPVWAARRRLAQNALNTFSIASDPASSSSCYLEEHVSKEAKALISRLQELMAGPGHFDPYNQVVVSVANVIGAMCFGQHFPESSDEMLSLVKNTHEFVETASSGNPLDFFPILRYLPNPALQRFKAFNQRFLWFLQKTVQEHYQDFDKNSVRDITGALFKHSKKGPRASGNLIPQEKIVNLVNDIFGAGFDTVTTAISWSLMYLVTKPEIQRKIQKELDTVIGRERRPRLSDRPQLPYLEAFILETFRHSSFLPFTIPHSTTRDTTLNGFYIPKKCCVFVNQWQVNHDPELWEDPSEFRPERFLTADGTAINKPLSEKMMLFGMGKRRCIGEVLAKWEIFLFLAILLQQLEFSVPPGVKVDLTPIYGLTMKHARCEHVQARLRFSIN
notes: purchased Sigma Aldrich (CYPexpress, Oxford Biomedical Research, Inc.) MTOXCE1A2
With B1 the Km [1, 4] was 0.35 ± 0.1 µM, the Vmax [1, 4] was 1.61 nmol/min and the Km [1, 5] was 0.33 µM. The Vmax [1, 5] was 1.64 nmol/min, the Km [1, 6] was 0.225 µM and the Vmax [1, 6] was 1.38 nmol/min. It also gave a Km [1, 7] of 0.47 µM and a Vmax [1, 7] of 1.82 nmol/min.

B2: CYP2C19 (Homo sapiens) (protein)
chain: MDPFVVLVLCLSCLLLLSIWRQSSGRGKLPPGPTPLPVIGNILQIDIKDVSKSLTNLSKIYGPVFTLYFGLERMVVLHGYEVVKEALIDLGEEFSGRGHFPLAERANRGFGIVFSNGKRWKEIRRFSLMTLRNFGMGKRSIEDRVQEEARCLVEELRKTKASPCDPTFILGCAPCNVICSIIFQKRFDYKDQQFLNLMEKLNENIRIVSTPWIQICNNFPTIIDYFPGTHNKLLKNLAFMESDILEKVKEHQESMDINNPRDFIDCFLIKMEKEKQNQQSEFTIENLVITAADLLGAGTETTSTTLRYALLLLLKHPEVTAKVQEEIERVIGRNRSPCMQDRGHMPYTDAVVHEVQRYIDLIPTSLPHAVTCDVKFRNYLIPKGTTILTSLTSVLHDNKEFPNPEMFDPRHFLDEGGNFKKSNYFMPFSAGKRICVGEGLARMELFLFLTFILQNFNLKSLIDPKDLDTTPVVNGFASVPPFYQLCFIPV
notes: purchased Sigma Aldrich (CYPexpress, Oxford Biomedical Research, Inc.) MTOXCE2C19
With B2 the Km [2, 8] was 2.3 ± 0.8 µM and 2.31 ± 0.8 µM, the Vmax [2, 8] was 0.0182 µmol/min and the Km ([2]; other: CYP2C19, biological repeat 1) was 3.19 µM. For the same protein, the Km ([2]; other: CYP2C19, biological repeat 2) was 1.42 µM.

B3: CYP2D6 (Homo sapiens) (protein)
chain: MGLEALVPLAVIVAIFLLLVDLMHRRQRWAARYPPGPLPLPGLGNLLHVDFQNTPYCFDQLRRRFGDVFSLQLAWTPVVVLNGLAAVREALVTHGEDTADRPPVPITQILGFGPRSQGVFLARYGPAWREQRRFSVSTLRNLGLGKKSLEQWVTEEAACLCAAFANHSGRPFRPNGLLDKAVSNVIASLTCGRRFEYDDPRFLRLLDLAQEGLKEESGFLREVLNAVPVLLHIPALAGKVLRFQKAFLTQLDELLTEHRMTWDPAQPPRDLTEAFLAEMEKAKGNPESSFNDENLRIVVADLFSAGMVTTSTTLAWGLLLMILHPDVQRRVQQEIDDVIGQVRRPEMGDQAHMPYTTAVIHEVQRFGDIVPLGVTHMTSRDIEVQGFRIPKGTTLITNLSSVLKDEAVWEKPFRFHPEHFLDAQGHFVKPEAFLPFSAGRRACLGEPLARMELFLFFTSLLQHFSFSVPTGQPRPSHHGVFAFLVSPSPYELCAVPR
notes: purchased Sigma Aldrich (CYPexpress, Oxford Biomedical Research, Inc.) MTOXCE2D6
In the case of B3, the Km [3, 9] is reported as 1.63 ± 0.7 µM, the Vmax [3, 9] is reported as 0.00093 µmol/min and the Km ([3]; other: CYP2D6, biological repeat 1) is reported as 2.43 µM. For the same protein, the Km ([3]; other: CYP2D6, biological repeat 2) was 0.89 µM and the Km ([3]; other: CYP2D6, biological repeat 3) was 1.57 µM.
